# Assay results from paper doi:10.1101/2020.06.15.153577.
# Experiments:
# [1] = target: Drosophila Shaker channel (ShakerIR) (Drosophila) (UniProt P08510)
# ShakerKD (Drosophila) = ShakerKD (Drosophila) (UniProt P08510)
Substance,"EC50 of block of K+ currents, two-electrode voltage clamp on Xenopus oocytes [1]","EC50 of block of K+ currents, two-electrode voltage clamp on Xenopus oocytes (ShakerKD (Drosophila))"
Conkunitzin-C1 (peptide),2200 nM,108 nM
Conkunitzin-C3 (peptide),166 nM,190 nM
